Measurements: US20170210824A1 (SALK INSTITUTE FOR BIOLOGICAL STUDIES, published 2017)
Where no end group is shown, it is not given here. [ ]: non-standard residue; d: D form. pY = N[C@@H](Cc1ccc(OP(=O)(O)O)cc1)C(=O)O

Assays:
[1] = target: T1, Nck Y105 peptide (CGERLYDLNMPAYVK); assay: pTyr peptide dot blot
T1 construct: also called unphosphorylated Nck peptide
T1 peptide: CGERLYDLNMPAYVK

[2] = target: T2, Eck (Ephrin A2) pY588 peptide (CLKPLKTpYVD); assay: pTyr peptide dot blot
T2 construct: also called Eck/EphA2 pTyr peptide
T2 peptide: CLKPLKT[pY]VD

[3] = target: T3, Nck pY105 peptide (CGERLpYDLNMPAYVK); assay: pTyr peptide dot blot
T3 construct: also called pTyr (NCK) peptide; pTyr peptide (Nck pY105)
T3 peptide: CGERL[pY]DLNMPAYVK

[4] = target: T4, Eck (Ephrin A2) Y588 peptide (CLKPLKTYVD); assay: pTyr peptide dot blot
T4 construct: also called unphosphorylated Eck peptide
T4 peptide: CLKPLKTYVD

[5] = target: T5, FAK pY397 peptide (AVSVSETDDpYAEIIDEEDTYT) (phosphotyrosine at position 10 (pY397)); assay: pTyr peptide dot blot
T5 construct: also called FAK pTyr peptide
T5 peptide: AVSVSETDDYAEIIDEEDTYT

[6] = target: T6, FLAG-NME1 with 1-pHis, in stably transfected HEK293 cells (UniProt P15531 1-152, limits assumed, 1-phosphohistidine (generated in vivo)); assay: immunoblot of FLAG-NME1 293 cell lysates
T6 construct: not shown: FLAG tag
T6 sequence (P15531 whole entry): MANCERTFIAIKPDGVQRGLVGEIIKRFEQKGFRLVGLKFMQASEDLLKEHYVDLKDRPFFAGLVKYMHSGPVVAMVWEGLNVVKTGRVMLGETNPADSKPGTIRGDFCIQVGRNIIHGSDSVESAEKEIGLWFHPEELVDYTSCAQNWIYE
Method: Immunoblotting with anti-pHis antibodies: In general, immunoblotting with anti-pHis antibodies was performed with modifications to standard procedures to help preserve pHis for detection. Buffers were adjusted to pH 8-9 to stabilize pHis and methods were modified to avoid heating samples. Protein samples were prepared in pH 8.8 sample buffer (5×=10% SDS, 250 mM Tris-HCl, pH 8.8, 0.02% Bromophenol blue, 50% glycerol, 50 mM EDTA, 500 mM DTT) for electrophoresis. Mammalian whole cell lysates were prepared by rinsing 70-100% confluent 10 cm² dishes twice with 5 ml cold TD buffer (TBS −/−, pH 8). Cells were scraped directly into 2× pH 8.8 sample buffer, incubated on ice and a cup horn sonicator was used (3-5×5 sec bursts) to disrupt cells and shear DNA. Lysates were clarified by centrifugation (14,000×g for 5-15 min at 4° C.) and analyzed immediately using freshly prepared Bis-Tris polyacrylamide minigels with a modified, pH 8.8 stacking gel and either 10% or 12.5% resolving gels. Electrophoresis buffer recipes were as follows: Running Buffer: (1×20 L, pH 8.5) 20 g SDS, 60 g Trizma Base, 288 g glycine, dH₂0 to 20 L, Transfer Buffer: (1×4 L, pH 8.5) 56.7 g glycine, 4 g SDS, 12 g Trizma Base, 800 ml MeOH, dH₂0 to 4 L. All electrophoresis steps were performed at 4° C. and samples were resolved at 90-100V for 2-3 hr. […]

Measured: binding result

B1: 3-pHis mAb SC39-4 (antibody, V domains shown)
VH: ESGGRLVTPGGSLTLTCTVSGFSLSRYNMGWVRQAPGKGLEWIGWIPFRGSLKYATWATGRFTISRTSTTVDLRMTGLTAADTATYFCVRSSDGFDLWGPGTLVTVSS
VL: QFVMTQTPASVEAVVGGTVTIKCQASRDTGDGLIWYQQKPGQPPKRLIYKASTVASGVPSRFKGRGSGTDFTLTISDLECADAATYYCHSNFYNRWTYGNAFGGGTEVVVKG
notes: Rabbit hybridoma monoclonal IgG; also called anti-3-pHis mAb SC39-4; SC39s (subclones of MC39)
no binding: all assays above
